What all share (conditions): tags: N-terminal Flag and nuclear localization signal, C-terminal VP64
Series [1] has as its target T1, GUN1-VP64 (PPR motif region) (Arabidopsis thaliana, UniProt Q9SIC9 SEQ:234-621).
T1 chain: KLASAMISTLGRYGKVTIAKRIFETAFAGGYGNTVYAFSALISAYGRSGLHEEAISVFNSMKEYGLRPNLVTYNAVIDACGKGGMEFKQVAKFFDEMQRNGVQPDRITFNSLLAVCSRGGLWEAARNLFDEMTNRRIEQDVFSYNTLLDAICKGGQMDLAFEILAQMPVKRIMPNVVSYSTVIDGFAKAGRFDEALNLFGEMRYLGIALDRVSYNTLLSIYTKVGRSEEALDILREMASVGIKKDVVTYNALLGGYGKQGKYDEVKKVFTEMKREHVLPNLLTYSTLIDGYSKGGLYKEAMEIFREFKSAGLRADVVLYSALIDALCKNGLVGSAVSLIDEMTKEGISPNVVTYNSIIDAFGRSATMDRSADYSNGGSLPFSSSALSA
The series is described as follows: cell_activity; 4x target reporter; HEK293T, Fluc/Rluc vs pminCMV-luc2. Here is the method: (§1) A reporter vector (pminCMV-luc2, SEQ ID NO: 10) was prepared, in which the firefly luciferase gene was ligated downstream from the Minimal CMV promoter, and a multi-cloning site was placed upstream of the promoter. The predicted target sequence of each PPR was inserted into the vector at the multi-cloning site. The target sequence of each PPR ([…] for p63, […] for pTac2, and […] for GUN1, SEQ ID NOS: 11 to 13 in Sequence Listing) was determined by predicting the motif-DNA recognition codes of DNA-binding type PPR from the motif-RNA recognition codes observed in the RNA-binding type PPR. For each PPR, sequences containing 4 or 8 of target sequences were prepared, and used in the following assay. The nucleotide sequences of the vectors are shown as SEQ ID NOS: 14 to 19 in Sequence Listing. […]
(§2) The luciferase activity was compared for the cases of introducing pTac2-VP64 or GUN1-VP64 together with pminCMV-luc2 for a negative control, or the reporter vector having 4 or 8 target sequences (table mentioned below, FIG. 6). The comparison of the activity was performed on the basis of standardized scores obtained by dividing the measured values obtained with Fluc (firefly luciferase) with the measured value obtained with Rluc (Renilla luciferase) as the reference (Fluc/Rluc).

Series [2] addresses T1, GUN1-VP64 (PPR motif region). As to the kind of experiment: cell_activity; 8x target reporter; HEK293T, Fluc/Rluc vs pminCMV-luc2. Here is the method:
as §1, §2

For series [3], the target named is T2, pTac2-VP64 (PPR motif region) (Arabidopsis thaliana, UniProt Q9S7Q2 SEQ:106-632).
T2 chain: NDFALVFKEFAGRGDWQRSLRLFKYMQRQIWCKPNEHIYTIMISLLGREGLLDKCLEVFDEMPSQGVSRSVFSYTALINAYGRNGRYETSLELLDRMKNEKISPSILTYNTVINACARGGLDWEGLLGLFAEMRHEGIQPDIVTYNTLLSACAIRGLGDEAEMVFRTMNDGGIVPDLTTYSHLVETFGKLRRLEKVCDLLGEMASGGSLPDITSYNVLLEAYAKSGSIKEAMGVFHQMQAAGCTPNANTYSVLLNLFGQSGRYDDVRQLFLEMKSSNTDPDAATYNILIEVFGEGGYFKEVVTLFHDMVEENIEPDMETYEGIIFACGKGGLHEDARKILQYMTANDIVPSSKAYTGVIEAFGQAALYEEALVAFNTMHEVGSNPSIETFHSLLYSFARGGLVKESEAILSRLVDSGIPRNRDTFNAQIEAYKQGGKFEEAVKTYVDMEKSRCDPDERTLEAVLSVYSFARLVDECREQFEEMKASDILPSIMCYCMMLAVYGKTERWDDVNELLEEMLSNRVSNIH
Described as above. Here is the method: as §1, §2

B1: GUN1 predicted target (dsDNA)
DNA 1: AATTTGTCGAT
DNA 2: ATCGACAAATT
Regarding B1, the activity in series [1] came to 2.88 fold activation; in series [2] it was 3.15 fold activation.

B2: pTac2 predicted target (dsDNA)
DNA 1: AACTTTCGTCACTCA
DNA 2: TGAGTGACGAAAGTT
B2: the activity in series [3] stood at 4.89 fold activation.

These data come from US20190169240, “DNA-BINDING PROTEIN USING PPR MOTIF, AND USE THEREOF” (KYUSHU UNIVERSITY, NAT'L UNIVERSITY CORPORATION, published 2019).
